# Experimental data: US10011659B2, “Compositions and methods for treating cancer resistant to a tyrosine kinase inhibitor (TKI)” (Yeda Research and Development Co. Ltd., priority 2014, dated 2018)
# Entries after “also recorded” stand apart in the source; their conditions may differ.
# Assays:
# [1] = system: H1975 NSCLC cells; experiment: Tumorigenic growth in-vivo, xenograft; parameters: species or system CD1-nu/nu mice; settings: for tumor growth: mAbs intraperitoneally once every three days from day 11, total 200 μg per mouse per injection
# Procedure: Tumorigenic growth in-vivo—The animal studies were approved by the Weizmann Institute's Review Board (IRB). CD1/nude mice (Harlan Laboratories) were randomized in groups of ten mice and injected subcutaneously in the right flank with H1975 lung cancer cells (3×10^6 per mouse) or with PC9ER lung cancer cells (4×10^6 per mouse). PBS or mAbs were injected intraperitoneally once every three days at a total dose of 200 μg per mouse per injection starting 11 days following cells injection, until tumors reached the size of 1,500 mm^3. In experiments evaluating the effect of the TKI AZD-9291, Vehicle (Vehicle formulation: HPMC 0.5% (sigma Cat#56340), Tween80 0.1% (Sigma Cat #P8074 in water), Erlotinib at a dose of 50 mg/kg per injection, or AZD9291 at a dose of 1 or 5 mg/kg per injection were injected daily intraperitoneally. In one experiment (FIG. 17), mice were treated daily with Erlotinib at a dose of 50 mg/kg per injection until tumors reached a size of 800 mm^3 and only then were treated as indicated. Tumor volume was evaluated twice a week and body weight was evaluated once a week. Mice were euthanized when tumor size reached 1,500 mm^3. Few of the tumors were harvested from mice at the indicated time points and taken for further evaluation. Survival of the tumor bearing mice was recorded and depicted by Kaplan-Meier analysis.
# [2] = system: PC9ER-AZDR cells; experiment: Tumorigenic growth in-vivo, xenograft; settings: erlotinib 50 mg/kg/d; AZD9291 1 and 5 mg/kg/d; 3×mAbs 0.2 mg/mouse/injection once every three days
# Procedure: A derivative of PC9ER cells (erlotinib-resistant) was implanted in the flank of immune compromised mice. Vehicle, erlotinib (50 mg/kg/d), low-dose AZD9291 (L; 1 mg/kg/d) and high-dose AZD9291 (H; 5 mg/kg/d) were daily administrated by oral gavage, while the 3×mAbs (triple antibody combination; CTX, TRZ, 33; 0.2 mg/mouse/injection) were administrated once every three days by intraperitoneal injection. Data are means±SEM from 9 mice in each group.
# Tumorigenic growth in-vivo—The animal studies were approved by the Weizmann Institute's Review Board (IRB). […] In experiments evaluating the effect of the TKI AZD-9291, Vehicle (Vehicle formulation: HPMC 0.5% (sigma Cat#56340), Tween80 0.1% (Sigma Cat #P8074 in water), Erlotinib at a dose of 50 mg/kg per injection, or AZD9291 at a dose of 1 or 5 mg/kg per injection were injected daily intraperitoneally. In one experiment (FIG. 17), mice were treated daily with Erlotinib at a dose of 50 mg/kg per injection until tumors reached a size of 800 mm^3 and only then were treated as indicated. Tumor volume was evaluated twice a week and body weight was evaluated once a week. Mice were euthanized when tumor size reached 1,500 mm^3. […] Survival of the tumor bearing mice was recorded and depicted by Kaplan-Meier analysis.
# [3] = system: PC9ER NSCLC cells; experiment: Tumorigenic growth in-vivo, xenograft; parameters: species or system CD1-nu/nu mice
# Procedure: CD1/nude mice (Harlan Laboratories) were randomized in groups of ten mice and injected subcutaneously in the right flank with H1975 lung cancer cells (3×10^6 per mouse) or with PC9ER lung cancer cells (4×10^6 per mouse). PBS or mAbs were injected intraperitoneally once every three days at a total dose of 200 μg per mouse per injection starting 11 days following cells injection, until tumors reached the size of 1,500 mm^3. […] Few of the tumors were harvested from mice at the indicated time points and taken for further evaluation. Survival of the tumor bearing mice was recorded and depicted by Kaplan-Meier analysis.
# [4] = system: PC9ER-AZDR cells; experiment: MTT cell survival assay; format: cell-based, human; settings: 72 hours, increasing doses
# Procedure: (§1) Cell cultures—The H1975 (ATCC; NCI-H1975_CRL-5908) lung cancer cell line (EGFR mutations: L858R and T790M, ATCC; Rockville, Md.), PC9 and erlotinib-resistant PC9ER lung cancer cells (de1746-750+T790M) (described in 16) were maintained in RPMI-1640 supplemented with 10% FCS (Life technology) and antibiotics. PC9ER cells resistant to AZD-9291, denoted as PC9ER-AZDR cells, were generated by incubating PC9ER cells with AZD-9291 for three months. The dose, initially provided at 0.5 nM, was increased every 4 days per 1.5 fold up to 2.5 μM. NL20 (ATCC; NL20_CRL-2503), an immortalized human bronchial epithelial cell line (ATCC, Rockville, Md.) was maintained in F12K medium as recommended by the ATCC. Co-cultures in a ratio of 1:1 of WI38 (ATCC; CCL-75) and PC9ER or H1975 cells were maintained in DME medium supplemented with sodium pyruvate and fetal calf serum (FCS 5%; Life Technology).
# (§2) Cell growth and survival—Cell survival was assessed using the 3-(4,5-dimethylthiazol-2-yl)-2,5 diphenyl tetrazolium bromide (MTT) assay (Sigma Cat#M2003). Cells were plated on 96-wells plates (2,000 cells/well) in triplicates. The medium was changed the following day and cells were treated as indicated. Following 3-4 days of incubation, MTT reagent was added to the cells for one hour followed by dissolving of the formazan crystals in SDS-DMF solution. Absorbance was measured using a microplate reader, Biorad Model 680, at 570 nm.
# [5] = system: EGFR phosphorylation in PC9ER-AZDR cells; experiment: Western blot (immunoblot) of EGFR phosphorylation; format: cell-based, human; settings: 1 μM, 6 hours
# [6] = system: PC9ER cells; experiment: MTT cell survival assay; format: cell-based, human; settings: for ability to inhibit survival of cultured NSCLC cells: 4 days, versus other anti-EGFR, anti-HER2, anti-HER3 mAbs (FIG. 3)
# Procedure: as §1, §2
# [7] = system: PC9 cells; experiment: MTT cell survival assay; format: cell-based, human; settings: 3 days treatment with increasing doses
# Procedure: as §1, §2
# [8] = system: H1975 cells; experiment: MTT cell survival assay; format: cell-based, human; settings: for ability to inhibit survival of cultured NSCLC cells: 4 days, versus other anti-EGFR, anti-HER2, anti-HER3 mAbs (FIG. 3)
# Procedure: as §1, §2
# [9] = system: EGFR, HER2, HER3 and phosphorylated forms in PC9ER and H1975 cells; experiment: Western blot after long-term exposure to anti-EGFR mAb; format: cell-based, human; settings: resistant cell lines
# Procedure: (§3) Western blot analysis—Cells were grown under specified conditions or treated as indicated. Following the cells were washed twice with cold PBS and scraped into lysis buffer [50 mM Hepes (pH 7.5), 10% glycerol, 150 mM NaCl, 1% Triton X-100, 1 mM EDTA, 1 mM EGTA, 10 mM NaF, 0.1 mM Na3VO4, and a complete protease inhibitor cocktail]. Thereafter, lysates were centrifuged at 14,000 g for 15 minutes at 4° C. The supernatant was used for subsequent procedures. Western blot analyses were conducted following protein separation using gel electrophoresis and transfer to nitrocellulose membranes. Immunoblotting was performed according to the antibody manufacturers' recommendation. Blocking was done using 5% milk in PBST (0.5% Tween20 Sigma Cat#P9416). Antibody binding to membrane blots was detected using horseradish peroxidase—secondary antibodies (Jackson ImmunoResearch Laboratories), followed by treatment with ECL Western blotting detection reagents (GE Healthcare).
# [10] = system: EGFR, HER2, HER3, AKT, ERK and their phosphorylated forms in PC9ER cells; experiment: Western blot time course of receptors and downstream pathways; format: cell-based, human; settings: 10 μg/ml; for ERK activation / re-activation (phosphorylation): late peak at about 24 hours
# Procedure: as §3
# [11] = 3 days treatment with increasing doses, EGFR T790M
molecule,measurement,setting,value
C=CC(=O)Nc1cc(Nc2nccc(-c3cn(C)c4ccccc34)n2)c(OC)cc1N(C)CCN(C)C [AZD-9291],body weight gain,"[1]; AZD9291 5 mg/kg/day, compared with the triple mAb combination",slightly inhibited body weight gain
same,growth of the erlotinib-resistant human NSCLC tumor,"[1]; AZD9291 5 mg/kg/day, triple combination of antibodies (CTX+TRZ+33)",comparably inhibited growth
same,tumor growth / tumor volume,[2],Neither erlotinib nor AZD9291 (at both low and high doses) were able to significantly inhibit tumor growth
same,tumor relapse in post-treatment phase,"[3]; erlotinib 1st line to approximately 550 mm^3, 2nd line treatment to day 50, then no treatment, AZD9291 1 or 5 mg/kg/d, 3×mAbs 0.2 mg/mouse/injection",relapse of tumors; also recorded: rapid and dramatic relapse
same,survival / sensitivity (MTT),[4],lost sensitivity
same,survival / sensitivity (MTT),[4]; listed as AZD9291,clearly demonstrated resistance
same,EGFR phosphorylation,[5],remained phosphorylated
same,EGFR phosphorylation,[5]; listed as AZD9291,failed to inhibit EGFR phosphorylation
C#Cc1cccc(Nc2ncnc3cc(OCCOC)c(OCCOC)cc23)c1 [erlotinib],tumor growth / tumor volume,[2],Neither erlotinib nor AZD9291 (at both low and high doses) were able to significantly inhibit tumor growth
same,"tumor growth, 1st line phase",[3]; erlotinib 50 mg/kg/d versus control group,no differences were noted
same,cell survival,[6]; [11],exhibited resistance
same,cell survival,[7],strongly inhibited
same,cell survival,[8]; [11],exhibited resistance
"mAb 565: anti-EGFR monoclonal antibody, clone 565, CNCM I-4262; VH SEQ ID NO: 1, Vkappa SEQ ID NO: 2 (antibody, V domains shown, not fully specified; anti-EGFR 565 VH amino acid sequence; EGFR 565 kappa amino acid sequence; (11)..(11) Xaa can be any naturally occurring amino acid) VH: QVQLQQSGAELVKPGASVKLSCKASGYTFTNYWIHWVKQRPGQGLEWIGEIGPINGRSNYIEKFKTKATLTVDKSSSTTYLHLSSLTSEDSAVYYCAREDDYDGKAMDYWGQGTSVTVSS VL: DIVMTQSHKFXSTSVGDRVSITCKASQNVGTAVAWYQQKPGQSPKLLIYWTSTRHTGVPDRFTGTGSGTEFTLTINNVQSEDLADYFCQQYSGYSFGGGTKLELKR",HER2 and HER3 and their active tyrosine phosphorylated forms,[9],up-regulation
same,expression levels of EGFR,[9],gradual decrease
same,tumor growth,[1],partly inhibited tumor growth
same,EGFR protein level (degradation),[10],almost disappeared
same,ERK activation / re-activation (phosphorylation),[10],hyper-phosphorylation
same,phosphorylation of EGFR,[10]; listed as anti-EGFR mAb,initially reduced; also recorded: strikingly strong re-phosphorylation
same,inhibition of survival,"[6]; 10 μg/ml, 4 days of incubation",approximately 40%
same,ability to inhibit survival of cultured NSCLC cells,[6]; 10 μg/ml,superior ability to inhibit survival
same,inhibition of survival,"[8]; 10 μg/ml, 4 days of incubation",approximately 40%
same,ability to inhibit survival of cultured NSCLC cells,[8]; 10 μg/ml,superior ability to inhibit survival
"mAb 12: anti-HER2 monoclonal antibody, clone N12, CNCM I-4112; VH SEQ ID NO: 3, Vkappa SEQ ID NO: 4 (antibody, V domains shown, of anti-HER2 N12 VH amino acid sequence; anti-HER2 N12 Vkappa amino acid sequence) VH: QVQLQQSGAELVRPGDSVNLSCKASGYTFTSYWMYWIKQRPDQGLESIGNIHPNNGGTNYSGKFKNKASLTVDKSSTTAYMQLSSLTSEDSAVYFCARLTGIGMDYWGQGTSVIVSS VL: DIVMTQSHKFMSTSVGDRVSITCKASQNVGTAVAWYQQKPGQSPKLLIYWTSTRHTGVPDRFTGTGSGTEFTLTINNVQSEDLADYFCQQYSGYSFGGGTRLEIKL",tumor growth,[1],"neither anti-HER2, anti-HER3 nor combined anti-HER2 and anti-HER3 treatment repressed tumor growth"
same,ERK activation / re-activation (phosphorylation),[10],induced ERK hyper-phosphorylation
same,ability to inhibit survival of cultured NSCLC cells,[6]; 10 μg/ml,superior ability to inhibit survival
same,ability to inhibit survival of cultured NSCLC cells,[8]; 10 μg/ml,superior ability to inhibit survival
"mAb 33: anti-HER3 monoclonal antibody, clone NG33; VH SEQ ID NO: 5, Vkappa SEQ ID NO: 6 (antibody, V domains shown, anti-HER3 33 VH amino acid sequence; anti-HER3 33 Vkappa amino acid sequence) VH: DVQLQESGPGLVKPSQSLSLTCSVTGYSITSGFYWSWIRQFPGNKLEWMGYIAYDGTSNYNPSLKNRISITRDTSKNQFFLKLKSVTNEDTPTYYCARGGGYYGQLLDYWGQGTSVTVSS VL: DARMTQSPSSLSASLGDRVTISCRASQDISNYLNWYQQKPDGTVKVLIYNTAKLHSGVPSRFSGSGSGTDYSLTISNLEQEDFATYFCQQGKTLPWTFGGGTKLELK",tumor growth,[1],"neither anti-HER2, anti-HER3 nor combined anti-HER2 and anti-HER3 treatment repressed tumor growth"
same,ability to inhibit survival of cultured NSCLC cells,[6]; 10 μg/ml,superior ability to inhibit survival
same,ability to inhibit survival of cultured NSCLC cells,[8]; 10 μg/ml,superior ability to inhibit survival
